In publication PMC9250616:
Like-named read-outs stand apart in the source and are kept apart here.

Key:
[1] = target: Protective antigen (Bacillus anthracis) (UniProt P13423); conditions: cited from earlier work
[2] = target: Protective antigen (Bacillus anthracis) (UniProt P13423); conditions: cited from earlier work; remark: listed apart in the source
Laminin-111 = experiment: ELISA

In the case of CMG2 (from UniProt P58335), the Kd [1] is listed as 0.2 nM.

In the case of TEM8 (from UniProt Q9H6X2), the Kd [2] is listed as 10 nM.

“biotinylated CMG2-AviTag construct (capillary morphogenesis gene 2, anthrax toxin receptor 2) (from UniProt P58335 34-489)” gave a Kd (Laminin-111) of 500 nM.
